Results as given in patent publication US20160130322A1.

What was measured:
[1] = target: unacylated ghrelin (UAG) (mouse) (UniProt Q9EQX0); assay: cell-based or functional assay
[2] = target: acylated ghrelin (AG) (mouse) (UniProt Q9EQX0); assay: cell-based or functional assay

Q: What does the source list for “GHSR/Fc (Nt-EC1-EC2 of mouse GHS-R1a fused with a mouse IgG constant region (Fc)) (Fc fusion)”?
A: levels of total ghrelin (primarily UAG) in circulation of mice expressing GHSR/Fc (plasma radioimmunoassay) [1]: 141 pg/mL; levels of AG in circulation of mice expressing GHSR/Fc (plasma enzyme-linked immunoassay) [2]: 1.41 pg/mL
